These results are taken from patent US7067474B1, “Agents for treating human illnesses based on β-catenin, and the production and use thereof” (Max-Delbruck-Centrum fur Molekulare Medizin, priority 1998, dated 2006).

Where no end group is shown, it is not given here.

In general, IC50 refers to the concentration at which inhibition is half-maximal.

One assay deals with β-catenin/TCF-4 complex. Briefly: ELISA with synthetic peptides: formation of the β-catenin/TCF-4 complex. The following applies: synthetic TCF4 peptides, analogous to LEF-1 peptides, which inhibit specifically. The format is binding.
The target of another assay is T1, β-catenin (Homo sapiens, UniProt P35222).
T1 construct: expressed in transfected cells; host or cells: yeast (two-hybrid system, Clontech)
T1 sequence (P35222 1-781): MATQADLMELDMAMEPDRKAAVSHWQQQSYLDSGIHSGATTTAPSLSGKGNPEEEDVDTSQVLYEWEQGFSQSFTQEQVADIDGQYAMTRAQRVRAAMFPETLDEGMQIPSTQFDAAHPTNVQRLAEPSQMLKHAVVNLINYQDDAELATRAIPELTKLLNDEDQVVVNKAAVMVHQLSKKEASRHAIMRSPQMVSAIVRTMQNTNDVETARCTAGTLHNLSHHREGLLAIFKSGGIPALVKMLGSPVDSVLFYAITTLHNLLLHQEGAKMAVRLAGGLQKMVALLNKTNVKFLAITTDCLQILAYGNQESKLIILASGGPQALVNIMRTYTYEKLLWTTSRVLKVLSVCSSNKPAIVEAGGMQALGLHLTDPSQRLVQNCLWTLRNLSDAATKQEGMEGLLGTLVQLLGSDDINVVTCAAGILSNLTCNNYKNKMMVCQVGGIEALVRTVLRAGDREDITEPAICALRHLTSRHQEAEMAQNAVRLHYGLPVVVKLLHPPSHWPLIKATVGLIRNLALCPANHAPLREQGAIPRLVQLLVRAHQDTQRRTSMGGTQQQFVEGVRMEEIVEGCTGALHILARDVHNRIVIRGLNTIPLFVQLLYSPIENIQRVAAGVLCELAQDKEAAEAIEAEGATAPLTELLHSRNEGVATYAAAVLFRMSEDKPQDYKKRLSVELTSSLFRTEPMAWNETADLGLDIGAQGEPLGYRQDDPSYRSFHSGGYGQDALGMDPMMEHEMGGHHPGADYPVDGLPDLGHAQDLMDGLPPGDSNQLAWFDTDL
The experiment in a line: yeast-2-hybrid system: interaction of LEF-1 fragments with β-catenin (β-galactosidase reporter activity). The following applies: LEF-1 fragments as Lex-A hybrids. The format is binding. The method, then:
The ‘yeast-2-hybrid system’ was used for identifying the minimum binding domain (FIG. 1). It was possible to limit the minimum binding domain to the N-terminal amino acids 11–27 of LEF-1 which corresponds t) the amino acids 7–29 in TCF-4 (FIG. 2). The interaction of N-terminal LEF-1 fragments with β-catenin was detected by means of activating a lacZ reporter gene (s. example).
The interaction between the partial domains of LEF-1 and β-catenin was analyzed in the yeast-2 hybrid system by determining the activity of β-galactosidase according to information of the producer (Clontech) (FIG. 1). For this purpose the DNA coding for the N-terminal partial domains of LEF-1 was inserted into the cloning site of the Lex-A DNA binding domain which contains vector BTM 116 and checked by sequencing. The DNA fragments of LEF-1 were prepared by a polymerase chain reaction (PCR) and incubation with restriction endonucleases. The DNA coding for β-catenin was cloned into the vector pGAD424 (Clontech) for the activation domain of GAL-4 (Behrens et al. 1996). The β-galactosidase activities of independent experiments were averaged (or comparing the interaction of the hybrids.
The specificity of the interaction of the LEF-1 hybrids with β-catenin was checked by means of the β-galactosidase activity of yeasts producing the LEF hybrids and the GAL-4 activation domain without β-catenin (FIG. 1). The expression of the LEF-1 hybrids was checked in an immunoblot with yeast cell lysates by antibodies (Clontech) as against the Lex-A domain of the hybrids. Equal yeast quantities were used for preparing the lysates after determining the optical density of the cultures.
The interaction of fragments of the binding domain of LEF-1 with β-catenin was analyzed by means of the β-galactosidase reporter activity in the yeast-2-hybrid system. […] Accordingly, the minimum binding domain of LEF-1 for β-catenin consists of 17 amino acids (11–27) showing an acidic character.

Assay [1] deals with T2, β-catenin produced recombinantly in bacteria with N-terminal histidine sequence (Homo sapiens (Human), UniProt P35222 2-781).
T2 construct: Soluble partner in the ELISA (50-100 ng), detected with antibody PA2
T2 sequence: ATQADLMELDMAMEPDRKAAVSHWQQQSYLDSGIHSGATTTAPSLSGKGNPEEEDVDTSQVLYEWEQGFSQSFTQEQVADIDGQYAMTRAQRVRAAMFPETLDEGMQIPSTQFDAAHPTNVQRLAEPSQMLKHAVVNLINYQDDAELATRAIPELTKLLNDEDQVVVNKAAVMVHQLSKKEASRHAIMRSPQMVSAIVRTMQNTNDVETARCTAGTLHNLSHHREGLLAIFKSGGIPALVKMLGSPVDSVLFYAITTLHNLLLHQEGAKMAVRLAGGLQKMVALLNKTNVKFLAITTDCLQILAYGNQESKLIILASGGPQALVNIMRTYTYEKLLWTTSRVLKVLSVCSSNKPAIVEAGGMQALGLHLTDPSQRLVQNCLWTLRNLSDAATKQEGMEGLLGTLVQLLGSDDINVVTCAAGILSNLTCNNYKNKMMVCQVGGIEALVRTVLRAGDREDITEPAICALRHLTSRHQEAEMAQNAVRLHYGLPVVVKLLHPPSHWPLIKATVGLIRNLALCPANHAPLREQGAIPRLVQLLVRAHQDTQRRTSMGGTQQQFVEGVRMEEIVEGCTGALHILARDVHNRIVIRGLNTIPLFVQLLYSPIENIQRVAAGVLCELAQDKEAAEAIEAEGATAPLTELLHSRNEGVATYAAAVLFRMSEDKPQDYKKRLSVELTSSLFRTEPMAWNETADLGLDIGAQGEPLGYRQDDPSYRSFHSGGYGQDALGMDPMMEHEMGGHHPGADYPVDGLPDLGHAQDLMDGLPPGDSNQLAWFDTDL
The experiment in a line: competition ELISA, LEF-1 coated, β-catenin in solution, detection with antibody PA2. For orientation: An ELISA detects its analyte on a solid surface through an enzyme-linked reagent.

Take DLGANDELISFKDE [10–23]: the “inhibition of formation of the β-catenin/TCF-4 complex” value in the assay with β-catenin/TCF-4 complex is “Analogous principles apply”.
Take “Met21 up to Val 56: partial domain of LEF-1 covering Met21 up to Val 56”: the “Binding to β-catenin (β-galactosidase reporter activity)” value (shortened to “Binding to β-catenin”) with β-catenin is listed as “does not show any binding activity”.
Turning to GGDDLGANDELISFKDEGEQEEK [7–29], the “inhibition of formation of the β-catenin/TCF-4 complex” value with β-catenin/TCF-4 complex is reported as “Analogous principles apply”.

B1: 17–34: LEF-1 fragment amino acids 17–34, Lex-A hybrid (protein)
chain: MKALTARQQEVFDLIRDHISQTGMPPTRAEIAQRLGFRSPNAAEEHLKALARKGVIEIVSGASRGIRLLQEEEEGLPLVGRVAAGEPLLAQQHIEGHYQVDPSLFKPNADFLLRVSGMSMKDIGIMDGDLLAVHKTQDVRNGQVVVARIDDEVTVKRLKKQGNKVELLPENSEFKPIVVDLRQQSFTIEGLAVGVIRNGDWLATDEMIPFKDEGDPQKEK
As for B1, the “Binding to β-catenin” value with β-catenin is “prevent the interaction”.
With GGDPELCATDEMIPFKDEGDPQKEK (peptide, UniProt P27782 10-34, looked up, range 10-34; the legend prints 10-34) [synthetic peptide of the minimum binding domain of LEF-1 (10-34)], in assay [1], the IC50 was determined as 4 µM.

B2: 11–27: LEF-1 fragment amino acids 11–27, Lex-A hybrid; minimum binding domain for β-catenin (protein)
chain: MKALTARQQEVFDLIRDHISQTGMPPTRAEIAQRLGFRSPNAAEEHLKALARKGVIEIVSGASRGIRLLQEEEEGLPLVGRVAAGEPLLAQQHIEGHYQVDPSLFKPNADFLLRVSGMSMKDIGIMDGDLLAVHKTQDVRNGQVVVARIDDEVTVKRLKKQGNKVELLPENSEFKPIVVDLRQQSFTIEGLAVGVIRNGDWLGDPELCATDEMIPFKDE
Consider B2, for which the “Binding to β-catenin” value with β-catenin is listed as “does not result in a loss of bond”.

B3: 11–23: LEF-1 fragment amino acids 11–23, Lex-A hybrid (protein)
chain: MKALTARQQEVFDLIRDHISQTGMPPTRAEIAQRLGFRSPNAAEEHLKALARKGVIEIVSGASRGIRLLQEEEEGLPLVGRVAAGEPLLAQQHIEGHYQVDPSLFKPNADFLLRVSGMSMKDIGIMDGDLLAVHKTQDVRNGQVVVARIDDEVTVKRLKKQGNKVELLPENSEFKPIVVDLRQQSFTIEGLAVGVIRNGDWLGDPELCATDEMIP
In the case of B3, the “Binding to β-catenin” value in the assay with β-catenin is “prevent the interaction”.
